The results in this text go back to patent publication US11491212.

B1: FIXa-Y155F/R318Y/R338E/T343R/R403E (protein)
chain 1: not shown
chain 2: not shown
B2: FIXa-Y155F/K247N/N249S/R338E/T343R/R403E (protein)
chain 1: not shown
chain 2: not shown
B3: FIXa-R318Y/R338E/T343R/R403E (protein)
chain 1: not shown
chain 2: not shown
B4: FIXa-Y155F/K247N/N249S/R318Y/T343R/E410N (protein)
chain 1: not shown
chain 2: not shown
B5: FIXa-Y155F/K247N/N249S/R338E/T343R/E410N (protein)
chain 1: not shown
chain 2: not shown
B6: FIXa-K247N/N249S/R338E/R403E/E410N (protein)
chain 1: not shown
chain 2: not shown
B7: FIXa-Y155F/R318Y/R338E/T343R/E410N (protein)
chain 1: not shown
chain 2: not shown
B8: FIXa-K247N/N249S/R318Y/T343R/R403E (protein)
chain 1: not shown
chain 2: not shown
B9: FIXa-Y155F/K247N/N249S/R338E/R403E/E410N (protein)
chain 1: not shown
chain 2: not shown
B10: FIXa-K247N/N249S/R338E/T343R/E410N (protein)
chain 1: not shown
chain 2: not shown
B11: FIXa-Y155F/K247N/N249S/R318Y/T343R/R403E (protein)
chain 1: not shown
chain 2: not shown
B12: FIXa-Y155F/K247N/N249S/T343R/R403E/E410N (protein)
chain 1: not shown
chain 2: not shown
B13: FIXa-Y155F/R318Y/T343R/R403E/E410N (protein)
chain 1: not shown
chain 2: not shown
B14: FIXa-K247N/N249S/R318Y/T343R/E410N (protein)
chain 1: not shown
chain 2: not shown

Sequence of Factor X (FX), P00742 (P00742 whole entry, looked up): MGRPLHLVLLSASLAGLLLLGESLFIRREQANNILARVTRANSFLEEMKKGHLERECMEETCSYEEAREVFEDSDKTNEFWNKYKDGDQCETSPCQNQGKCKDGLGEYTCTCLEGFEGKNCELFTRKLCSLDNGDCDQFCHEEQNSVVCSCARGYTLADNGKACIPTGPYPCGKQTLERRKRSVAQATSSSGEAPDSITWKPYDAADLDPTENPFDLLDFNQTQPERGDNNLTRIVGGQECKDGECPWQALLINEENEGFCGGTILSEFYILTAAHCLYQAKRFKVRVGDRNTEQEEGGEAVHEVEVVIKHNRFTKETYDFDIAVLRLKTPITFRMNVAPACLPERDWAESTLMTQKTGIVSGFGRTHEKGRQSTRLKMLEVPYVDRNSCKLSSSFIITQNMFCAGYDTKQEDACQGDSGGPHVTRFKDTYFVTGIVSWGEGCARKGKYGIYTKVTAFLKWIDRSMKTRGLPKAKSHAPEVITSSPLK

The first data set concerns the target Factor X (FX), P00742.
Turning to B1, the Michaelis-Menten constant (KM) was 34 nM.

As to B2, the kcat was 14.6 s⁻¹.

Turning to B3, the KM worked out at 44.3 nM.

For B4, the catalytic constant (kcat) was 8.1 s⁻¹.

Turning to B5, the kcat amounted to 4.8 s⁻¹.

For B6, the Michaelis-Menten constant (KM) was 25 nM.

With B7, the Michaelis-Menten constant (KM) amounted to 25.6 nM.

With B8, the kcat worked out at 3.7 s⁻¹.

Consider B9, for which the KM amounted to 48.7 nM.

As for B10, the kcat is 7.9 s⁻¹.

For the protein B11, the kcat worked out at 7.5 s⁻¹.

For B12, the kcat came out at 15 s⁻¹.

On to B13, for which the Michaelis-Menten constant (KM) was 34 nM.

B14: the catalytic constant (kcat) is 6.1 s⁻¹.

For another data set, the target named is Factor X, P00742.
Sequence of Factor X, P00742 (P00742 whole entry, looked up): as above
For B1, the specificity constant (kcat/KM) came to 2.6e+08 M⁻¹ s⁻¹.

As for B2, the KM was 25.1 nM.

Take B3: the kcat/KM was found to be 1.6e+08 M⁻¹ s⁻¹.

As to B4, the Michaelis constant (KM) was determined as 38.1 nM.

Consider B5, for which the Michaelis-Menten constant (KM) was 27 nM.

Take B6: the specificity constant (kcat/KM) amounted to 1.9e+08 M⁻¹ s⁻¹.

For the protein B7, the catalytic efficiency (kcat/KM) turned out to be 3.7e+08 M⁻¹ s⁻¹.

In the case of B8, the Michaelis-Menten constant (KM) worked out at 105 nM.

For B9, the specificity constant (kcat/KM) turned out to be 1.1e+08 M⁻¹ s⁻¹.

B10: the Michaelis constant (KM) is 27.5 nM.

Regarding B11, the KM is 60.5 nM.

Regarding B12, the KM came to 52 nM.

For B13, the specificity constant (kcat/KM) was determined as 2.6e+08 M⁻¹ s⁻¹.

Consider B14, for which the Michaelis-Menten constant (KM) amounted to 40.1 nM.

By KM is commonly meant the substrate concentration at which the rate is half of its maximum. Broadly, the kcat is the number of substrate molecules converted per active site and unit of time at saturation. The kcat/KM is the second-order rate constant that governs catalysis at low substrate concentration.
